# Measured values from the RNAGym collection of RNA variant scans (doi:10.7554/elife.90254).
# B1: LINE1-mini (parent)
# chain: GGCAGAGCUCAACACAGCGUGGCAAAGUGGCUGUGGCUAGACUGCC
# Variants of: B1
# Test: self-cleavage, relative activity (ratio to wild type); higher = more cleavage; in vitro, sequencing; the parent is a self-cleaving ribozyme
row,Variant,self-cleavage
1,A4C C42U,0.2
2,A4U G35U,0.13
3,G1U G2C,0.16
4,A24G A26U,1.28
5,A11C A41C,0.01
6,C23A A39G,0.08
7,G19U G27U,0.58
8,G5U A12G,0.04
9,A14U G22C,0.27
10,A6C C42G,0.02
11,U28A G29U,0.41
12,C45U C46A,0.63
13,A6G G19U,0.15
14,A6G G7C,0.14
15,C10U A39C,0.17
16,A24G U34A,0.09
17,G7C C13G,0.18
18,G5A A39G,0.08
19,G17C U28G,1.62
20,C3A U34G,0.12
21,G17C A41G,0.27
22,U20A U38G,0.02
23,G36C A41C,0.05
24,C18U G33A,0.09

row,Variant,self-cleavage
1,A14C U28C,0.07
2,A16C,0.11
3,G17A C37U,0.05
4,U34A U38C,0.2
5,G17U G21A,0.3
6,G17U A41G,0.08
7,G1A G21A,1.86
8,C13A A25G,0.1
9,A14C A24G,0.07
10,G33A A39U,0.06
11,G7C C31A,0.09
12,C18A C31U,0.04
13,C3A G22U,0.71
14,G21A C23A,1.07
15,C15U A25U,0.77
16,C13U C37A,0.27
17,G30A G36U,0.1
18,C13G G36U,0.1
19,G17A G35A,0.04
20,C10U C31G,0.05
21,C15A A39G,0.08
22,A4U C8U,0.26
23,G5C C23U,0.05
24,A14U A24G,0.79

row,Variant,self-cleavage
1,U9G A25C,0.13
2,G27A A39C,0.11
3,A12G C37G,0.02
4,C23A G33A,0.78
5,G21C G44A,0.34
6,G19C A26G,0.27
7,A14G U20C,0.78
8,A4C A14G,0.1
9,G7A C13A,0.45
10,C15G G44A,0.03
11,A6G C8G,0.08
12,C13U U20A,0.17
13,G36C C46A,0.13
14,A6U C31U,0.31
15,C3G G33C,0.12
16,C23G C31G,0.07
17,C18U A25G,0.26
18,C8A G29U,0.43
19,U32A U38G,0.02
20,C37U C45A,0.06
21,A16C A26C,0.04
22,G2A C3A,1.93
23,G5C U43C,0.04
24,G5U A14G,0.06

row,Variant,self-cleavage
1,A16U C23G,0.1
2,U28C G33A,0.14
3,G7C G30U,0.1
4,G30C A41C,0.05
5,G5C A6G,0.09
6,A4U A39C,0.27
7,G5A C18U,0.14
8,G2A A4U,0.58
9,U9G G36A,0.61
10,G22C C31U,0.26
11,G21A U28C,1.44
12,A16C C42A,0.05
13,C13A G40A,0.09
14,U32G,0.19
15,C3A C13G,0.54
16,C13G A24C,0.07
17,C8A C13G,0.36
18,A25G C37U,0.06
19,G36C G40A,0.09
20,G1A G44U,0.91
21,A12U G33C,0.03
22,A12C C18G,0.02
23,G30A C46A,1.15
24,C13A G40U,0.09

row,Variant,self-cleavage
1,A12C C42G,0.02
2,G1U G7U,0.06
3,G1U C15A,0.08
4,U28A U43A,0.11
5,U32G G33U,0.07
6,C13A C37A,0.09
7,G40U C42U,0.07
8,A39U U43A,0.06
9,C15G G33U,0.36
10,G5U G22U,0.18
11,A11C G33C,0.02
12,A24G G44A,1
13,G2C G17A,0.08
14,A6C G19C,0.3
15,C13A A16C,0.08
16,C13U G19U,0.23
17,G21U A39U,0.63
18,G2U A24U,0.19
19,G36U C42A,0.06
20,A24G G44C,0.66
21,C31U C37G,0.05
22,G1C A41C,0.02
23,G5C G21U,0.09
24,G1U,0.33

row,Variant,self-cleavage
1,C3G A11G,0.09
2,U9G A24U,0.18
3,G7A U9A,0.3
4,G17A G30C,0.83
5,U20A G36U,0.05
6,G29C G40C,0.05
7,U20C U38A,0.19
8,G1U C23G,0.24
9,A4G G40C,0.1
10,G21A U34A,0.08
11,U20A G33C,0.04
12,G30A A39G,0.11
13,G19U G44U,0.28
14,A6U G19A,0.64
15,G1A U20C,0.33
16,U32C G44C,0.09
17,G17A A26C,0.34
18,G7U A25C,0.06
19,C8A C23A,0.25
20,A12G U34G,0.02
21,U20C A41G,1
22,G5A G29A,0.1
23,G5A G29U,0.13
24,C23U C42A,0.25

row,Variant,self-cleavage
1,G29U C42G,0.04
2,C8A C18A,0.37
3,G21A C42G,0.06
4,A11C C15U,0.03
5,G27A G30C,1.53
6,C10G G40A,0.01
7,A6C G21C,0.42
8,A16G A39G,0.07
9,C23G U28G,0.89
10,G22U G27U,1.46
11,G7U G30C,0.06
12,A14C A16U,0.12
13,C18G U28G,0.22
14,G30C U43C,0.25
15,G40A U43G,0.09
16,A12G C18U,0.04
17,A16C C23A,0.12
18,A11U C37G,0.02
19,C13A U38A,0.05
20,A11U G33C,0.02
21,G30U U43G,0.2
22,A16C C46G,0.09
23,A11U G40C,0.02
